Assay results: paper PMC8013792, “Bacterial protein domains with a novel Ig‐like fold target human CEACAM receptors” (The EMBO Journal, 2021)

B1: recombinant CEACAM1 N-terminal domain, unglycosylated, 6xHis tagged [human] / IgSF (IgI3) domain of β protein, recombinant, biotinylated [modified: biotin, C-terminal] [Streptococcus agalactiae (GBS)] (parent complex)
chain 1: MAQLTTESMPFNVAEGKEVLLLVHNLPQQLFGYSWYKGERVDGNRQIVGYAIGTQQATPGPANSGRETIYPNASLLIQNVTQNDTGFYTLQVIKSDLVNEEATGQFHVY
chain 2: ANENNQQKIELTVSPENITVYEGEDVKFTVTAKSDSKTTLDFSDLLTKYNPSVSDRISTNYKTNTDNHKIAEITIKNLKLNESQTVTLKAKDDSGNVVEKTFTITVQKKEEKQLPSTGGS
B2: IgSF (IgI3) domain of β protein, recombinant, biotinylated [modified: biotin, C-terminal] [Streptococcus agalactiae (GBS)] / recombinant CEACAM1 N-terminal domain, unglycosylated, 6xHis tagged [human] (parent complex)
chain 1: B1 chain 2
chain 2: B1 chain 1

Variants of: B1
Assay: flow cytometry on coated dynabeads; parent: 390; read off a plot

Point of comparison: chain 2 L46A, response ~200 Geometric MFI. Against it:
- chain 2 D55A — higher, ~340 Geometric MFI
- chain 2 F42A — higher, ~750 Geometric MFI
- chain 2 V53A — higher, ~280 Geometric MFI

Variants of: B2
Assay: flow cytometry on coated dynabeads; parent: 800; read off a plot

Point of comparison: chain 2 Q91A, response ~230 Geometric MFI. Against it:
- chain 2 N99A — higher, ~540 Geometric MFI
- chain 2 Q46A — higher, ~510 Geometric MFI
- chain 2 F31A — higher, ~390 Geometric MFI
- chain 2 I93A — higher, ~240 Geometric MFI
- chain 2 L97A — higher, ~450 Geometric MFI
- chain 2 V98A — higher, ~590 Geometric MFI
